Data: the nanobody polyreactivity screen of Harvey et al. (2022)

Assay: yeast display, Sf9 membrane polyspecificity reagent, FACS + sequencing; frameworks hold sequencing errors
How it was run: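 Using colony PCR, genes from sorted yeast display clones were amplified, then sequenced on MiSeq at 2 × 250 and filtered by CDR length. The clones had been stained with 10% biotinylated, detergent-solubilized Sf9 membrane reagent for 1 hour at 4 °C and sorted by FACS into low and high (top ~1%) gates on anti-HA and streptavidin fluorescence. Polyreactivity labels come from the gate of origin.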

Row | Sequence | polyreactivity (PSR sort gate)
1 | QVQLVESGVGLVQAGGSLRLSCAASGNTFLPYAMGWYRQAPGKERELVAANSWSGGSTYYADSVKGRFTISRDNAKNTVYLQMNSLKPEETAVYYSARRRIGTPAYYYWGHGTQVTVSS | high polyreactivity
2 | QVQLVESGGGLVQAGGSLRLSCAASGRIIAYYAMGWYRQAPGKERELVAGINSGGGSTYYADSVKGRFTISRDNAKNTVYLQMNSLKPEDTAVYYCAARAGGVDGYDYWGQGTQVTVSS | high polyreactivity
3 | QVQLVESGGGLVQAGGSLRLSCAASGLIFYAKAMGWYRQAPGKEREFVAAITYRGGSTYYADSVKGRFTISRDKAKNTVYLQMNCLKPEATAVYYCATVTDRYPYIRRYHFPYYYWGQGTQVTVSS | high polyreactivity
4 | QVQLVESGGGLVQAGGSLRLTCAAYGRIFRGYAMGWYRQAPGKERDLVAAISGSGGSTYNADSVKGRFTISRDNAKNTVYLQMNSLKPEDTAVYYCNAGWYFYGETTDDYWGQGTQVTVSS | low polyreactivity
5 | QVQLVESGGGLVQAGGSLRLSGAASGSTCYYGMGWYRQAPGKYRELVAAISSRGGTPYYADSVKGRFTISRDNAKNTVYLQMTSLKPEDTAVDDCAAPVPYYVPRRNEGDYWGQGTQGTVSS | low polyreactivity
6 | QVQLVESGGGLVQAGGSLRLSCAASGFTFRYYAMGWYSQAPGKERELVAAITRSGGSTYYADSVKGRFTISRDNAKNTVYLQMNSLKPDDTGVYYCAARGHYRDGDEYWGQGTEVTVSS | high polyreactivity
7 | QVQLVESCGGLVQAGGSLRLSCAASGSIFSGYAMGWYRQAPWKERELVAAITWRAASTYYADSVTGRFTISRDNAMNTVYLQMNSLKPEDTAVYYCAKEGWPKPAFYYCGQGTQVTVSS | low polyreactivity
8 | QVQLVESGGGLVQAGGSLRLTCAASGRTFALYAMGWYRQAPGKERELVAGITGRGGTTHYADSVKGRFTISRDYAKNTVYLQMNSLKPEDTAVYYCATTQSWRVPYRRLGYWGQGTQVTVSS | low polyreactivity
9 | QVQLVESGGGLVQAGGSLRLRCASSGGIFVPYAMGWYRQAPGKERELVAGITSGGSTNYADSVKGRFSISRDNAKNTVYLQMNRLKPEDTAVYYCAARRRPGGRYKSRVWYDYWGLGTQVTVSS | high polyreactivity
10 | QVQLVESGGGLVQAGGSLRLSCAASGSTFVINDMGWYRQAPGKERELVAAITWGSGSTYYADSVKGRFTISRDNAKNTVYLQMNSLKPEDTAVYYCAADVYFGLVGYYAEYNDYWGQGTQVNVSS | low polyreactivity
11 | QFQLVESGGGLVQAGGSLRLSCAASGSTINPNTMVWSREAPGKERELVAVISSGGSTYYADSVKGRFTISRDNATNTVYLQMNSLKPEDSAVYYCAADRGTVSYLYCPRAVYYWGQGTQVTVSS | low polyreactivity
12 | QDQLVESGGGLVQAGGSLRLSCAASGFTFGDNAMGWYRQAPGKERELVAAITSSGSTNYADSVKGRFTISRDNAKNTVYLQMNSLKPEDTAVYYCNAEDSVDAPVYKDLGSEYDSWGQGTQVTVSS | low polyreactivity
13 | QVQLVESGGGLVQAGGSLRLSCAASGRILRYYAMGWYRQAPGKERELVAVITSSDGSTYYADSVKGRFTISRDNAKNTVYLQMNSLKPEDTAVYYCAADYHWYRRPGYNYWGQGTQVTVSS | low polyreactivity
14 | QVQLVESGGGLVQAGGSLRLSCAASGRTFYDYDMGCDRQAPGKERELVAAISGGDSTYYADSVKGRFTISRDNAKNTVYLQMNSLKPEDTAVYYCAVTPRGLPYGAYLLYYWGQGTQVTVSS | low polyreactivity
15 | QVQLVESGGGLVHAGGSLRLSCAASGIISGWNGMGWYRQAPGKERELVASIDKNGSTYYADSVKGRCTISRDNAKNTVYLQMISLKPEDTAVYYCASDVRYRGNREDYWGQGTQVNVSS | low polyreactivity
16 | KVQLVESGGGLVQAGGSLRLSCAASGSIFIGYAMGCYRQAPGKERELVAAISYRGGSTYYADSVKGRFTISRDNAKNTVYLQMNSLKPEDTAVYYCATVLPVQQTRLGYSSRYYYWGQGTQVTVSS | high polyreactivity

Row | Sequence | polyreactivity (PSR sort gate)
17 | QVQLVESGGGLVQAGGSLRLICAASGSTFGPYAMGWYRQAPGKERELVADITVSDGSTYYADSVKGRFTISRDNAKNTVYLQMNSLNPEDTAVYYCAAEIYYSFGYWGQGTQVTVSS | low polyreactivity
18 | QVQLVESGGGLVQAGGSLRLSCASSGFTFDPYAMGWYRQAPGKERELVAAISWSGGSTYYADSVKGRFTISRDNAKNTVYLQMNSLKPEDTAVYYCAAEWYNSAYYEYDYWGQGTQVTVSS | high polyreactivity
19 | QVQLVESGGGLVQAGVSLRLSCAASGFNFVFYDMGWYRQAPGKERELVAGITRNDGSTYYADSVKGRFKISRDNAKNTVYLQMNSLKPEDTAVYYCAADRVRRNDKLAYDYWGQGTQVTVSS | low polyreactivity
20 | QVQLVESVVGLVQARGTLRLSGATTGNTFYKNTMRWYRQPHGKERELVAAISQRGTRTYYADSVQGRFTISRDYAKNTVYLQMNSLKPEDTAVYYCPTVMSQVGFDYWGQGTQVTVSS | high polyreactivity
21 | QVQLVESGGGLVQAGGSLRLSCAASGSTFPKYAMGWYRQAPGKERELVASISVTTGSTYYADSVKGRFTISRDNAKNTVYLQMNSLNPEDTAVYYCAKRTYSRKFRGAYNYWGQGTQVTVSS | high polyreactivity
22 | QVQLVESGGGLVQAGGSLRLSCAASGFTFGYYAMGWYRQAPGKERELVAAINWSGGRTYYADSVKGRFTISRDNAMNTVYLQMNRLKPEDTAVYYCAASSRTKRYYWGQGTQVTVSS | high polyreactivity
23 | QVQLVESGGGLVQAGGSLRLSCAASGSIFGYYAMGWYRQAPGKERELVARISYSGGTTYYADSVKGRFTISRDNAKNTVYLQMNSLKPEATAVYYCNARIPYSWRYGYWGQGTQVTVSS | high polyreactivity
24 | QVQLVESGGGLVQAGGSLRLSCAASGNTFKGYAMGSYRPAPGKERELVAAISWSGSSTYYADSVKGRFTISRDNAKNTVYLQMNSLKPEDTAVYYCAKAFKYTSPRRPYDYWGQGTQVTVSS | high polyreactivity
25 | QVQLVESAGGLVQAGGSLRLSCAASGSTFPWNAMGWDRQAPGKERELVAAISKSGGRTYYADSVKGRFTISRDNAKNTVYLQMNSLKPVDTAVYYCAKRYALSVYYRLYDYWGQGTQVTVSS | high polyreactivity
26 | QVQLVESGGGLVQAGGSLRLICAASGLTFLNNAMGSYRQAPGKERELVAAISDGGSTNYADSVKGRFTISRDNAKNTVYLQMNSLKAEDTAVYYCAAVYTSASSGSWGQGTQVTVSS | low polyreactivity
27 | QVQLVESGGGLVQAGGSLRLSCAASGITFGGYAMGWYRQAPGKERELVASIRSGSSTNYADSVKGRFTISRDNAKNTVYLQMNSLKPEDTAVYYCAARNFRNRYGYWGQGTQVTVSS | high polyreactivity
28 | QVQLVESGGGLVQAGGSLRLSCAASGRIFQYYAMGWYRQAPGKERELVAAISSAGSTYYADSVKGRFTISRDNAKNTVYLQMNSLKPEDTAVYYCAVGKQVLSYQNYYWGQGTQVTVSS | low polyreactivity
29 | QVQLVESGGGLVQAGGSLRLSCAASGLIFTYYAMGWYRQAPGKERELVAAISGRGGSTYYADSVKGRFTISRDNAKNTVYLQMNSLKPEDTAVYYCAAVRWAGYVSDYGYWGQGTQVTVSS | high polyreactivity
30 | QVQLVESGGGLVQAGGSLRLSCAASGNTTPVNAMGWYRQAPGKERQLVAAITQSGGSTYYADSVKGRFTISRDNAKNTVYLQMNSLKPEDTAVYYCAADYGHYYGLYYWGQGTQVTVSS | low polyreactivity
31 | QVQLVQSGGGLVQAGGSLRLSCAATGSTFRIYAIGWYRQAPGKEREFVAAISDRGGRTYYADSVKGRFTISRDNAKNTVYLQMNSLKPEDTAVYYCAAVKLLSSAPGDDGQMNYWGQGTQVTVSS | low polyreactivity
